# Assay results reported in the supplement of paper PMC10567573.
# B1: TRPA1 addW (peptide)
# chain: EQRNSRWNTVLRAVKAKTHHLEPW
# B2: PSMB5 addW (peptide)
# chain: DGWIRVSSDNVADLHEKYSGSTPW
# B3: BEX2 addW (peptide)
# chain: HSLRAVSTDPPHHDHHDEFCLMPW
# B4: SNF8 addW (peptide)
# chain: LPALFTDLYSQEITAEEAREALPW
# B5: POLD2 addW (peptide)
# chain: CQPISFSGFGAEDDDLGGLGLGPW
# Test: protein stability index of a GFP-peptide fusion (GPS, HEK-293T) (PSI 1-6); higher = more stable
# Conditions: c terminus: native
# 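Further: lentivirally expressed fusion library, cells FACS-sorted into six equal-sized GFP/DsRed ratio bins, PSI computed from sequencing read fractions per bin weighted by bin number.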
protein,measurement,setting,value
B1,protein stability index,parent: NP_015628.1,3.58
B2,protein stability index,parent: NP_002788.1,3.46
B3,protein stability index,parent: NP_116010.1,3.48
B4,protein stability index,parent: NP_009172.2,3.4
B5,protein stability index,parent: NP_006221.1,2.02
